Measured values published in PMC5517500, “Cyclic di-GMP regulates Mycobacterium tuberculosis resistance to ethionamide” (Scientific Reports, 2017).

T1: Ycdc (Escherichia coli, UniProt P0ACU2)
T1 construct: gene rutR
T1 sequence (P0ACU2 1-212): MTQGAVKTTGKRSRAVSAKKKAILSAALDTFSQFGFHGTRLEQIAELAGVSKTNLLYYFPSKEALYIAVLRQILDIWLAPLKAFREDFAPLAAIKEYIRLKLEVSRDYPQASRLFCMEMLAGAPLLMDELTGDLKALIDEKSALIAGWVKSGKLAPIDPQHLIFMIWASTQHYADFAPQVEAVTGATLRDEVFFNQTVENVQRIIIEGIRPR

B1: etha promoter DNA (dsDNA)
DNA 1: CGGTCATGGATCCACGCTATCAACGTAATGTCGAGGCCGTCAACGAGATGTCGACACTATCGA
DNA 2: CTGACTGGCCGCGGAGGTGGTCACCCTGGCAGCTTACTACGTGTCGATAGATGTCGACATCTCGTTGACGG

Assays:
[1] = target: T1, Ycdc; test: incubation with bio-c-di-GMP (Supplementary Fig. S4b); assay type: binding
[2] = target: T2, EthR (Mycobacterium tuberculosis H37Rv, UniProt P9WMC1 1-216); test: BLI; no c-di-GMP; conditions: protein: recombinant; tags: 6xHis (E. coli, pET28a) or GST (yeast); chain copies: 2; label: biotin on second strand (Ms6440pr)
[3] = target: T2, EthR; test: BLI; 50 uM c-di-GMP; conditions: protein: recombinant; tags: 6xHis (E. coli, pET28a) or GST (yeast); chain copies: 2; label: biotin on second strand (Ms6440pr)

T2 sequence (P9WMC1 whole entry): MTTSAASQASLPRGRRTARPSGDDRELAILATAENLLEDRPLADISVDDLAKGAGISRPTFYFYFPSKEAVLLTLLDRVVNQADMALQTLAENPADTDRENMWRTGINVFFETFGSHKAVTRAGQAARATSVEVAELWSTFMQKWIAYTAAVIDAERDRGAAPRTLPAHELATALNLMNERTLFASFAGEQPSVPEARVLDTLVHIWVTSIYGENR

Molecule | incubation with bio-c-di-GMP (Supplementary Fig. S4b) [1] | Kd [2] [µM] | Kd [3] [µM]
Nc1nc2c(ncn2[C@@H]2O[C@@H]3COP(=O)(O)O[C@H]4[C@@H](O)[C@H](n5cnc6c(=O)[nH]c(N)nc65)O[C@@H]4COP(=O)(O)O[C@H]3[C@H]2O)c(=O)[nH]1 [c-di-GMP] | we incubated Escherichia coli Ycdc with bio-c-di-GMP, the result clearly showed that they bind each other |  | 
B1 |  | 1.34 | 1.12
